From US20130224187A1 (Alexion, published 2013)

T1: human C5a desarg (human, UniProt P01031 678-750)
T1 construct: also called desarginated C5a; hC5a desarg
T1 sequence: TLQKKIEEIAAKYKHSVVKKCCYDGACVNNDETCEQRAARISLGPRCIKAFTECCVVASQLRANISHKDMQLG

T2: human C5a (human, UniProt P01031 678-751)
T2 construct: also called hC5a; free human C5a
T2 sequence: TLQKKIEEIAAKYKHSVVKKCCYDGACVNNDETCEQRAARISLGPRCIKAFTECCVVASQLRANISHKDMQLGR

T3: human C4a (human, UniProt P0C0L4 680-756)
T3 construct: domain: C4a
T3 sequence (looked up): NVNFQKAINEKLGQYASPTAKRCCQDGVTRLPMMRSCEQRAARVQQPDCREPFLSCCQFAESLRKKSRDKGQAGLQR


Experiments:
[1] = biological target: T1, human C5a desarg; test: Biolayer interferometry (Octet); biotinylated antigen on streptavidin tip, 20 nM IgG in solution
Procedure: (§2) These antibodies were evaluated for specificity using Biolayer Interferometry on an Octet (ForteBio Inc.).

[2] = biological target: T2, human C5a; test: as above
Procedure: as §2

[3] = biological target: T4, human C3a (human, UniProt P01024 672-748); test: Biolayer interferometry (Octet); biotinylated antigen on streptavidin tip, IgG in solution
T4 construct: domain: C3a
Procedure: as §2

[4] = biological target: T3, human C4a; test: as above
Procedure: as §2

[5] = biological target: T2, human C5a; test: SPR (Biacore); summary sentence of Table 4
Procedure: (§1) See, e.g., Karlsson and Larsson (2004) Methods Mol Biol 248:389-415. […] The surface was regenerated with 20 mM HCl, 0.02% P20 after each cycle to remove bound antibody and antigen. The data was evaluated using Biacore BlAevaluation software using a 1:1 Langmuir Model Fit (Rmax:Global Fit; R1:Local Fit). Kinetics information such as (kₐ: Association Rate constant), (kd:Dissociation Rate constant) and KD (Equilibrium Dissociation constant) was obtained from the fit. These experiments were for screening purposes with a minimal number of analyte concentrations (3 to 4) with 1 duplicate.

[6] = biological target: T2, human C5a; test: SPR (Biacore); antibody captured by anti-human Fc on CM5 chip, human C5a 0.6-5.9 nM as analyte; 1:1 Langmuir fit
Procedure: as §1

[7] = biological target: T5, human full-length C5 (human, UniProt P01031 19-673; P01031 678-1676); test: Octet analysis
T5 construct: mature; also called uncleaved human C5; native, fully-folded human C5
Target sequence in this assay (P01031 19-673 limits assumed, chain 1 of 2): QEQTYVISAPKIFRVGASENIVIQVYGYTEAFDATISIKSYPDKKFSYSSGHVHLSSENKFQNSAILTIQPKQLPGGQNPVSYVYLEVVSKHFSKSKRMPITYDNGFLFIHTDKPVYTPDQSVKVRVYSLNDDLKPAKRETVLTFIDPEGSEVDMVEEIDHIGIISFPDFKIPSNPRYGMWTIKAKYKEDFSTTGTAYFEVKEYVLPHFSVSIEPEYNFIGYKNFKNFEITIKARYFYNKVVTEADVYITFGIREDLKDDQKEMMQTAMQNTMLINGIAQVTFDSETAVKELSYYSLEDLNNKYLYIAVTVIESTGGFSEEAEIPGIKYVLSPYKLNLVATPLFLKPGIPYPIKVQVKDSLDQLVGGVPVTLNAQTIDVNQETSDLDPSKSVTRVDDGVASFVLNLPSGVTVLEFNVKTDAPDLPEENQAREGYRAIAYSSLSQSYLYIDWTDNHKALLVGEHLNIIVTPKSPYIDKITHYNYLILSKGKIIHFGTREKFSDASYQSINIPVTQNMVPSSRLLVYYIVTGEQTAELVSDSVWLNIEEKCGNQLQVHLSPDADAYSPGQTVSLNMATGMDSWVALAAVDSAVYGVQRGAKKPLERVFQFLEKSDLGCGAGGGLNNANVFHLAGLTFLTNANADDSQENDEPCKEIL
Target sequence in this assay (P01031 678-1676 limits assumed, chain 2 of 2): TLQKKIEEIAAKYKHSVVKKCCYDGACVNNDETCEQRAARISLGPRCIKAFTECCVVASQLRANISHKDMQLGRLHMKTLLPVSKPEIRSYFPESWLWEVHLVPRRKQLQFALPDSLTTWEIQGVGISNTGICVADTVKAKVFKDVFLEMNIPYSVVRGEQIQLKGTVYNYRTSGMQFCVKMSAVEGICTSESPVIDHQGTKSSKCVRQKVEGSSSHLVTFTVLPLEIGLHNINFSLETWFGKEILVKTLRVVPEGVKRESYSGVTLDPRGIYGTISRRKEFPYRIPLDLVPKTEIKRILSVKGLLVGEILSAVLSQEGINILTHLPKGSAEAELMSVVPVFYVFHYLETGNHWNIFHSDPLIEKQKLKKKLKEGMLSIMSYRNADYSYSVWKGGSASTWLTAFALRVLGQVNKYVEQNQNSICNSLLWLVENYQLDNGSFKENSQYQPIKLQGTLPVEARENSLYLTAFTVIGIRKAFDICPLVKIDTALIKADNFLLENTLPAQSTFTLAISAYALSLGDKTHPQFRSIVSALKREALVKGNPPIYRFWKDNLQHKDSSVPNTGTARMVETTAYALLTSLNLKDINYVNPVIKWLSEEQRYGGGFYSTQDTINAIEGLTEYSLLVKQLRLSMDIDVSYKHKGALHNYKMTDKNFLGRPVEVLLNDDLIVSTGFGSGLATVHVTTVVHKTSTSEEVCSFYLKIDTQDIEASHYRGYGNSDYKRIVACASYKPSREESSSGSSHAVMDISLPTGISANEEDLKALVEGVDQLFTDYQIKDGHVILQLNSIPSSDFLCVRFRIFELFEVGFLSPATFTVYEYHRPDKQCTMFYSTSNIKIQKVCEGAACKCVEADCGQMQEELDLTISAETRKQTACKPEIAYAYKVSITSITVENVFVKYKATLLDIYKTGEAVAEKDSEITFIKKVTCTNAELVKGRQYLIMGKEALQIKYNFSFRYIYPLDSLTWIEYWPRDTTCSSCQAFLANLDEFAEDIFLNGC

[8] = biological target: T4, human C3a; test: Octet analysis
[9] = biological target: T3, human C4a; test: Octet analysis
[10] = biological target: T5, human full-length C5; test: Biolayer interferometry (Octet); biotinylated antigen on streptavidin tip, IgG in solution
Target sequence in this assay (P01031 19-673 limits assumed, one chain of several): as the sequence (P01031 19-673 limits assumed, chain 1 of 2) above
Procedure: as §2

[11] = biological target: T2, human C5a; test: Biolayer interferometry (Octet)

T4 sequence (P01024 672-748 limits assumed): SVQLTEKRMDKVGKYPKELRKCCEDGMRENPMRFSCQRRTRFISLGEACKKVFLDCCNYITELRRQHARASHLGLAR

Binder | binding result [1] | binding result [3] | binding result [4] | binding result [7] | binding result [8] | binding result [9] | also measured
5an048ME (antibody, V domains shown, Full length mouse IgG2a) VH: EVRLQQSGPELVKPGASVRISCKASGYTFNDYYYMNWVKQSHGKSLEWIGYIFPKTGGTHYNQRFKGKATLTVDKSSSTAYMELRSLTSEDSAVYYCASGPFAYWGQGTLVTVSA VL: EIVLTQSPAIMSASPGEKVTMTCRASSSVSSSYLHWYQQKSGASPKLWIYSTSNLASGVPARFSGSGSGTSYSLTISSVEAEDAATYYCQQYSGYPLTFGGGTKLEIKR | binds | no binding (tested: 20 nM) | no binding (tested: 20 nM) |  |  |  | binding result [2]: binds
BNJ378 (antibody, human IgG2, kappa, V domains shown, Humanized full length IgG) VH: QVQLVQSGAEVKKPGASVKVSCKASGYTFTDYSMDWVRQAPGQGLEWMGAINPNSGGTNYNQKFKDRVTMTRDTSTSTVYMELSSLRSEDTAVYYCARSGSYDGYYAMDYWGQGTTVTVSS VL: DIQMTQSPSSLSASVGDRVTITCRASESVDSYGNSFMHWYQQKPGKAPKLLIYRASNLESGVPSRFSGSGSGTDFTLTISSLQPEDFATYYCQQSNEDPYTFGGGTKVEIKR |  |  |  |  |  |  | Kd [5]: < 1 nM; Kd [6]: 0.298 nM; koff [6]: 0.000576 s⁻¹; kon [6]: 1.93e+06 M⁻¹ s⁻¹
BNJ350 (antibody, V domains shown, also called BNJ350 humanized anti-C5a antibody) VH: QVQLVQSGAEVKKPGASVKVSCKASGYTFTDYSMDWVRQAPGQGLEWVGAINPNSGGTNYSQKFKDRVTITADESTSTAYMELSSLRSEDTAVYYCARSGSYDGYYAMDYWGQGTTVTVSS VL: DIVMTQSPDSLAVSLGERATINCRASESVDSYGNSFMHWYQQKPGQPPKLLIYRASNLESGVPDRFSGSGSGTDFTLTISSLQAEDVAVYYCQQSNEDPYTFGGGTKVEIKR |  |  |  | no binding | no binding | no binding | 
BNJ366 (antibody, human IgG2, kappa, Humanized full length IgG) heavy: QVQLVQSGAEVKKPGASVKVSCKASGYTFTDYSMDWVRQAPGQGLEWMGAIHLNTGYTNYNQKFKGRVTMTRDTSTSTVYMELSSLRSEDTAVYYCARGFYDGYSPMDYWGQGTTVTVSSASTKGPSVFPLAPCSRSTSESTAALGCLVKDYFPEPVTVSWNSGALTSGVHTFPAVLQSSGLYSLSSVVTVPSSNFGTQTYTCNVDHKPSNTKVDKTVERKCCVECPPCPAPPVAGPSVFLFPPKPKDTLMISRTPEVTCVVVDVSHEDPEVQFNWYVDGVEVHNAKTKPREEQFNSTFRVVSVLTVVHQDWLNGKEYKCKVSNKGLPAPIEKTISKTKGQPREPQVYTLPPSREEMTKNQVSLTCLVKGFYPSDISVEWESNGQPENNYKTTPPMLDSDGSFFLYSKLTVDKSRWQQGNVFSCSVMHEALHNHYTQKSLSLSPGK light: DIVMTQSPDSLAVSLGERATINCRASESVDSYGNSFMHWYQQKPGQPPKLLIYRASNLESGVPDRFSGSGSGTDFTLTISSLQAEDVAVYYCQQSNEDPYTFGGGTKVEIKRTVAAPSVFIFPPSDEQLKSGTASVVCLLNNFYPREAKVQWKVDNALQSGNSQESVTEQDSKDSTYSLSSTLTLSKADYEKHKVYACEVTHQGLSSPVTKSFNRGEC |  |  |  |  |  |  | Kd [5]: < 1 nM; Kd [6]: 0.15 nM; koff [6]: 0.000158 s⁻¹; kon [6]: 1.05e+06 M⁻¹ s⁻¹
5an179ME (antibody, V domains shown, Full length mouse IgG2a) VH: EVQLQQSGPELVKPGASVRMSCKASGYTFTSYLIHWVKQKPGQGLEWIGYIYPFNDGTKNNENFKGKATLTSDKSSSTVYMEVSSLTSEDSAVYYCARSHGPHYYGGSYGYHFDYWGQGTTLTVSS VL: DVVMTQTPLSLPVSLGDQASISCRSSQSLVHSNGNTYLHWYLQKPGQSPKLLIYKVSNRFSGVPDRFSGSGSGTDFTLKISRVEAEDLGVYFCSQSTHVPLTFGAGTKLELKR | binds | no binding (tested: 20 nM) | no binding (tested: 20 nM) |  |  |  | binding result [2]: binds
5an101ME (antibody, V domains shown, Full length mouse IgG2a) VH: EVQLQQSGPELVKPGSSVKISCKASGYTFTDYSMDWVKQSHGKSLEWIGAINPNSGGTNYSQKFKDKATLTVDKSSSTAYMELRSLTSEDSAVYYCASSGSYDGYYAMDYWGQGTSVTVSS VL: DIVMTQSPASLAVSLGQRATISCRASESVDSYGNSFMHWYQQKPGQPPKLLIYRASNLESGIPARFSGSGSRTDFTLTINPVEADDVATYYCQQSNEDPYTFGGGTKLEIKR | binds | no binding (tested: 20 nM) | no binding (tested: 20 nM) |  |  |  | binding result [10]: no binding (tested: 20 nM); binding result [11]: binds
BNJ347 (antibody, V domains shown, also called BNJ347 humanized anti-C5a antibody) VH: QVQLVQSGAEVKKPGASVKVSCKASGYTFTDYSMDWVRQASGKGLEWMGAIHLNTGYTNYNQKFKGRVTITADESTSTAYMELSSLRSEDTAVYYCARGFYDGYSPMDYWGQGTTVTVSS VL: DIVMTQSPDSLAVSLGERATINCRASESVDSYGNSFMHWYQQKPGQPPKLLIYRASNLESGVPDRFSGSGSGTDFTLTISSLQAEDVAVYYCQQSNEDPYTFGGGTKVEIKR |  |  |  | no binding | no binding | no binding | 
BNJ354 (antibody, V domains shown, also called BNJ354 humanized anti-C5a antibody) VH: QVQLVQSGAEVKKPGASVKVSCKASGYTFTDYSMDWVRQASGKGLEWMGAIHLNTGYTNYNQKFKGRVTMTRDTSTSTVYMELSSLRSEDTAVYYCARGFYDGYSPMDYWGQGTTVTVSS VL: DIVMTQSPDSLAVSLGERATINCRASESVDSYGNSFMHWYQQKPGQPPKLLIYRASNLESGVPDRFSGSGSGTDFTLTISSLQAEDVAVYYCQQSNEDPYTFGGGTKVEIKR |  |  |  | no binding | no binding | no binding | 
BNJ346 (antibody, V domains shown, also called BNJ346 humanized anti-C5a antibody) VH: QVQLVQSGAEVKKPGASVKVSCKASGYTFTDYSMDWVRQAPGQGLEWVGAIHLNTGYTNYNQKFKGRVTITADESTSTAYMELSSLRSEDTAVYYCARGFYDGYSPMDYWGQGTTVTVSS VL: DIVMTQSPDSLAVSLGERATINCRASESVDSYGNSFMHWYQQKPGQPPKLLIYRASNLESGVPDRFSGSGSGTDFTLTISSLQAEDVAVYYCQQSNEDPYTFGGGTKVEIKR |  |  |  | no binding | no binding | no binding | 
BNJ345 (antibody, V domains shown, also called BNJ345 humanized anti-C5a antibody) VH: QVQLVQSGSELKKPGASVKVSCKASGYTFTDYSMDWVRQAPGQGLEWMGAIHLNTGYTNYNQKFKGRVTITADESTSTAYMELSSLRSEDTAVYYCARGFYDGYSPMDYWGQGTTVTVSS VL: DIVMTQSPDSLAVSLGERATINCRASESVDSYGNSFMHWYQQKPGQPPKLLIYRASNLESGVPDRFSGSGSGTDFTLTISSLQAEDVAVYYCQQSNEDPYTFGGGTKVEIKR |  |  |  | no binding | no binding | no binding | 
5an180ME (antibody, V domains shown, Full length mouse IgG2a) VH: EVQLQQPGAEIVRPGASVKLSCRASGYTFTDYWMNWVKQRPGQGLEWIGTIDPSDSYTIYNQKFKGKATLTVDTSSTTAYIQLSSLTSEDSAVYFCARGEDYDVSSYTMDYWGQGTSVTVSS VL: DIQMTQSPASLSASVGETVTITCRASENIYSYLAWYQQKQGKSPQLLVYNAKTLAEGVPSRFSGSGSGTQFSLKINSLQPEDFGSYYCQHHYGTPYTFGGGTKLEIKR | binds | no binding (tested: 20 nM) | no binding (tested: 20 nM) |  |  |  | binding result [10]: no binding (tested: 20 nM); binding result [11]: binds
5an178ME (antibody, V domains shown, Full length mouse IgG2a) VH: EVKLVESGGGLVQPGGSRKLSCAASGFTFSDYGMVWVRQAPGKGLEWVAFISSGSSNIYYADTVKGRFTISRDNPKNTLFLQMNSLRSEDTAIYYCGRAFSFYYGYDYWGQGTTLTVSS VL: EIVLTQSPASLAVSLGQRATISCSASESVEYFGTSLMQWYQQKPGQPPKLLIYAASNVESGVPARFSGSGSGTDFSLNIHPVEEDDIAMYFCQQSRKVPWTFGGGTKLEIKR | binds | no binding (tested: 20 nM) | no binding (tested: 20 nM) |  |  |  | binding result [2]: binds
